Measurements from patent US20130034559A1.

Assays:
[1] = target: human B7-H1 expressed on cells (human) (UniProt Q9NZQ7); assay: FACS, 1 µg/ml isotype control, anti-CD3-activated human T cells
[2] = target: human B7-DC on 293T cells (human) (UniProt Q9BQ51); assay: FACS, 5 µg/ml isotype control, 293T cells transfected with human B7-DC
[3] = target: mouse B7-H1 on J558 cells (mouse) (UniProt Q9EP73); assay: FACS, 5 µg/ml isotype control, J558 cells expressing mouse B7-H1
[4] = target: human B7-H1 expressed on cells (human) (UniProt Q9NZQ7); assay: FACS, 5 µg/ml isotype control, 293T cells transfected with human B7-H1
[5] = target: cynomolgus monkey B7-H1 expressed on cells (cynomolgus monkey) (UniProt G7PSE7); assay: FACS, 1 µg/ml isotype control, anti-CD3-activated cynomolgus monkey T cells
Sequence of cynomolgus monkey B7-H1 expressed on cells (cynomolgus monkey) (G7PSE7 entry or part of it): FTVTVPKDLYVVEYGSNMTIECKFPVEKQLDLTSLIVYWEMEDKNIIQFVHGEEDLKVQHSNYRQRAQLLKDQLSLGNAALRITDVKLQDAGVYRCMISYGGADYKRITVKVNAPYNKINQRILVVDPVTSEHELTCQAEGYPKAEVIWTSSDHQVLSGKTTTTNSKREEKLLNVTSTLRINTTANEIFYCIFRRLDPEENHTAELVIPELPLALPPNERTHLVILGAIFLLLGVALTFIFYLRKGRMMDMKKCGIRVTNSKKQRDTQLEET

Sequence of human B7-H1 expressed on cells (human) (Q9NZQ7 19-290): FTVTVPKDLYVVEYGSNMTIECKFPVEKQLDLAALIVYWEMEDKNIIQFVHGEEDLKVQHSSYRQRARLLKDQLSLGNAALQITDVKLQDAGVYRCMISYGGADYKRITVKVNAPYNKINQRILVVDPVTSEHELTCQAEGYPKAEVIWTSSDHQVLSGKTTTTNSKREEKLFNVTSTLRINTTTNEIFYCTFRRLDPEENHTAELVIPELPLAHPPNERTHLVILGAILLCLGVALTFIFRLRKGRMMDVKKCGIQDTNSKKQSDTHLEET
Sequence of human B7-DC on 293T cells (human) (Q9BQ51 20-273): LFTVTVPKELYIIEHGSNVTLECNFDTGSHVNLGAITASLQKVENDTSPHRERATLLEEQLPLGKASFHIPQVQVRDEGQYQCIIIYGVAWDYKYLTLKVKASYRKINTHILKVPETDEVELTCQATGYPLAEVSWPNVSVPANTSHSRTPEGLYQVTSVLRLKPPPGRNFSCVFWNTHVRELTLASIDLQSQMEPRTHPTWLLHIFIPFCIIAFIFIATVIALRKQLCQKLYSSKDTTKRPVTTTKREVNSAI
Sequence of mouse B7-H1 on J558 cells (mouse) (Q9EP73 19-290): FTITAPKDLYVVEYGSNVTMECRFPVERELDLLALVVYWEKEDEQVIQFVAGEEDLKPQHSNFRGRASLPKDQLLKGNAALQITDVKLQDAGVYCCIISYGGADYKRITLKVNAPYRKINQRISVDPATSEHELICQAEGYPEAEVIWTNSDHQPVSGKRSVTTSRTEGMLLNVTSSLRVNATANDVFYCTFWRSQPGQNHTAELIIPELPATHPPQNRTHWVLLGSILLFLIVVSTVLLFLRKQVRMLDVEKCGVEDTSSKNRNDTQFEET

Substance	geo mean [1]	geo mean [2]	geo mean [3]	geo mean [4]	geo mean [5]
irrelevant human IgG2 antibody	10	9.5	3.1	7.6	–
irrelevant human IgG4 antibody	10	8.8	3.2	10.7	17.6
